Here are results for one molecule from publication PMC2259325, “Hepatitis C virus NS5A protein binds the SH3 domain of the Fyn tyrosine kinase with high affinity: mutagenic analysis of residues within the SH3 domain that contribute to the interaction” (Virology Journal, 2008).

Usually koff stands for the first-order rate constant of dissociation. Higher therefore signals fast dissociation. As a reminder, the kon is the rate constant with which the complex forms. A low value points to slower complex formation.

The assay concerns the target T1, NS5A(Δ32), N-terminally truncated hepatitis C virus non-structural 5A protein (hepatitis C virus (genotype 1b, J4 …, UniProt O92972 2005-2419)).
T1 construct: source: E. coli BL21 pLysS (DE3), purified (Ni-NTA, gel filtration on Superdex75)
T1 sequence: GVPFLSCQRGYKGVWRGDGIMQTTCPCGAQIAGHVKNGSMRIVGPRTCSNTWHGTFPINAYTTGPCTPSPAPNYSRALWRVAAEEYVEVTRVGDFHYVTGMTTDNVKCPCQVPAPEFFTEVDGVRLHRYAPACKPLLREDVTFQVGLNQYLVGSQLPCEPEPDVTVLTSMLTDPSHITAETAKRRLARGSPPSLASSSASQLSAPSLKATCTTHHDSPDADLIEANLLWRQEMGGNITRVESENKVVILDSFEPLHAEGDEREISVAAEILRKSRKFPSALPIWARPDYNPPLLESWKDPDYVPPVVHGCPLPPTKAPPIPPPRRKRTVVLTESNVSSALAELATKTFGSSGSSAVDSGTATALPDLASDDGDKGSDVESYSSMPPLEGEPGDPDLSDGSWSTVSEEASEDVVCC
As to the kind of experiment: SPR; Biacore 3000, HBS buffer (10 mM Hepes-NaOH pH 7.4, 150 mM NaCl, 0.005% Tween-20), 25°C; GST-SH3 captured on CM5 chip via amine-coupled anti-GST antibody; NS5A 3 μM - 100 nM flowed over, in triplicate; 1:1 Langmuir fit. The conditions noted are these: both partners purified. In general terms: In SPR one partner is held on a chip, and binding of the other changes the refractive index at the surface.

B1: GST-Fyn SH3 domain fusion protein (wild type) (domain or fragment)
chain: not shown
notes: source: expressed and purified as previously described [6]
B1: the off-rate constant (koff) came to 0.00308 s⁻¹ and the on-rate (kon) was found to be 4930 M⁻¹ s⁻¹.
